In US20140193915, “COMPOSITIONS AND METHODS FOR CUSTOM SITE-SPECIFIC DNA RECOMBINASES” (Monsanto Technology, LLC, published 2014) one finds activity data, which are given here for four molecules.

Assay in all cases: cell_activity; E. coli
The target in data set [1] is T1, sN-TALER IV-2 (GinH106Y-TALE13) (synthetic).
T1 chain: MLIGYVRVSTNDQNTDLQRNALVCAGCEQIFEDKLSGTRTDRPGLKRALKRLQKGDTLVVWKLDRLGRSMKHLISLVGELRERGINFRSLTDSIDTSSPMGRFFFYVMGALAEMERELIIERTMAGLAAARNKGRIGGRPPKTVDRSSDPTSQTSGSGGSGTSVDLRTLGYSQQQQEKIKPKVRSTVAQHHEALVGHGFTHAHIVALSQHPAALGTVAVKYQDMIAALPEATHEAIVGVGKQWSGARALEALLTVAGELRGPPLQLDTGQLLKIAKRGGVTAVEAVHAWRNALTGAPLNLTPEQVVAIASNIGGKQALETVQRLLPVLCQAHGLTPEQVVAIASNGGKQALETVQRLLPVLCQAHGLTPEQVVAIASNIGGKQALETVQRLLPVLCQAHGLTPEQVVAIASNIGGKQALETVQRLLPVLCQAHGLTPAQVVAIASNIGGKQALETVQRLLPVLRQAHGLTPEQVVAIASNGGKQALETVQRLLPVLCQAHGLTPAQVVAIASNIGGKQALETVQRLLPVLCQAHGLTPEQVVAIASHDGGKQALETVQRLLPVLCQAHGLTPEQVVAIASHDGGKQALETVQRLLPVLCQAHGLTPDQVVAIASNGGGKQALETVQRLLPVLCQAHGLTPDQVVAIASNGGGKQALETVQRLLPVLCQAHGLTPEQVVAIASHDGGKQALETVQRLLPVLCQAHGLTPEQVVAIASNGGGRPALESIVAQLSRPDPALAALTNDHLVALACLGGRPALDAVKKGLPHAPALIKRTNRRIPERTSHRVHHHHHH
Particulars: tags: 6-His. How it is done:
(§1) To test for recombination, E. coli DH5alpha cells were co-transformed with different combinations of TALER expression construct and TALER reporter construct pairs (Tables 6 and 7). The N-TALER expression and reporter constructs were in an approximate 1:1 mass ratio during the transformation. The co-transformed bacteria were plated on media with chloramphenicol, kanamycin, and X-gal then incubated at 37° C. for 18 to 36 hours. Control samples consisted of transformations using the reporter construct alone. Control transformants were similarly plated. The bacterial transformation protocol was either heat shock or electroporation per standard molecular biology techniques.

The target of a further data set is T2, sN-TALER IV-3 (synthetic).
T2 chain: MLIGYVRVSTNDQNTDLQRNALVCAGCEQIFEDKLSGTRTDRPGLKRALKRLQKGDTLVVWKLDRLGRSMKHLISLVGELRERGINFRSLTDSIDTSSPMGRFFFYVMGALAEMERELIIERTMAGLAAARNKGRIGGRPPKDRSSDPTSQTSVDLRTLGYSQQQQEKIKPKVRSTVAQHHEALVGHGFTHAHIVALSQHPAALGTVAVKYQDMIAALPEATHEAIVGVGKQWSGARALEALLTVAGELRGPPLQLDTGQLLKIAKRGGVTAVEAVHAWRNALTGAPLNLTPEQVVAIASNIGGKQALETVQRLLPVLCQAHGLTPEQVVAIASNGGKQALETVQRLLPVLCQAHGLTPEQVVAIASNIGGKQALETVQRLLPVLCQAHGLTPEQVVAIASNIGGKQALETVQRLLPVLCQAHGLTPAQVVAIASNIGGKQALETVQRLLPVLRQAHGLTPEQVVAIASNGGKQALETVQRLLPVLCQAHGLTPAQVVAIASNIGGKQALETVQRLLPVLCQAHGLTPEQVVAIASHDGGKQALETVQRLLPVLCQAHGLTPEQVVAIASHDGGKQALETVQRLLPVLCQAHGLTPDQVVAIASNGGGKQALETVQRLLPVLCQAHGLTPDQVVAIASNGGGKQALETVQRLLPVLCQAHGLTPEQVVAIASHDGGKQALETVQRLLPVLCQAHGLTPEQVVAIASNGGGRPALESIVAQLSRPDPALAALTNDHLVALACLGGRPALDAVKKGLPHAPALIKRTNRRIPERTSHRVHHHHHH
The following applies: tags: 6-His. On the procedure:
as §1

For data set [2], the target named is T3, sN-TALER IV-1 (GinH106Y-TALE13) (synthetic).
T3 chain: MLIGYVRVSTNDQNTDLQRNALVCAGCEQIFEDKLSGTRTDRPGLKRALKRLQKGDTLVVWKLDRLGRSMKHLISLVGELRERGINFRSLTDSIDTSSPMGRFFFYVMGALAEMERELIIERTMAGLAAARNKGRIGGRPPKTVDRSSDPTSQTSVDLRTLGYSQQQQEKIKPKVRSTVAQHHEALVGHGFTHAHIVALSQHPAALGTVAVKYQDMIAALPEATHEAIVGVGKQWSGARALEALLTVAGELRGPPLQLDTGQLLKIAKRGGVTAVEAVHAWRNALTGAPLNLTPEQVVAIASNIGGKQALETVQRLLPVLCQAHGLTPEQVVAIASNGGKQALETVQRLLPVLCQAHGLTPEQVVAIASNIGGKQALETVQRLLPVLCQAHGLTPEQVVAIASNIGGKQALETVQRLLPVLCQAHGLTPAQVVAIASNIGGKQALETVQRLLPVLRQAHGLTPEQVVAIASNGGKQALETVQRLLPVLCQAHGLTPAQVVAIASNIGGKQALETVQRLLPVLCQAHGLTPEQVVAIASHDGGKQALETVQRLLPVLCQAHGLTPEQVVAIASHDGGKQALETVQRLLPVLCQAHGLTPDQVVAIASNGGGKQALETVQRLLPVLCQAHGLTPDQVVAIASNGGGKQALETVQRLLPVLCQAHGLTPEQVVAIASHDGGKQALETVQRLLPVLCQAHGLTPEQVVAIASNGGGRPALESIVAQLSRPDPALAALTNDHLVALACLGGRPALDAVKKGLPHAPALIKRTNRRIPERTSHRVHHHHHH
The following applies: tags: 6-His; chain copies: 2 per site, tetramer in synapsis (stated). How it is done:
as §1

The target in data set [3] is T4, pN-TALER IV-1-EE2 (GinL7C7-EE2-TALE13) (synthetic).
T4 chain: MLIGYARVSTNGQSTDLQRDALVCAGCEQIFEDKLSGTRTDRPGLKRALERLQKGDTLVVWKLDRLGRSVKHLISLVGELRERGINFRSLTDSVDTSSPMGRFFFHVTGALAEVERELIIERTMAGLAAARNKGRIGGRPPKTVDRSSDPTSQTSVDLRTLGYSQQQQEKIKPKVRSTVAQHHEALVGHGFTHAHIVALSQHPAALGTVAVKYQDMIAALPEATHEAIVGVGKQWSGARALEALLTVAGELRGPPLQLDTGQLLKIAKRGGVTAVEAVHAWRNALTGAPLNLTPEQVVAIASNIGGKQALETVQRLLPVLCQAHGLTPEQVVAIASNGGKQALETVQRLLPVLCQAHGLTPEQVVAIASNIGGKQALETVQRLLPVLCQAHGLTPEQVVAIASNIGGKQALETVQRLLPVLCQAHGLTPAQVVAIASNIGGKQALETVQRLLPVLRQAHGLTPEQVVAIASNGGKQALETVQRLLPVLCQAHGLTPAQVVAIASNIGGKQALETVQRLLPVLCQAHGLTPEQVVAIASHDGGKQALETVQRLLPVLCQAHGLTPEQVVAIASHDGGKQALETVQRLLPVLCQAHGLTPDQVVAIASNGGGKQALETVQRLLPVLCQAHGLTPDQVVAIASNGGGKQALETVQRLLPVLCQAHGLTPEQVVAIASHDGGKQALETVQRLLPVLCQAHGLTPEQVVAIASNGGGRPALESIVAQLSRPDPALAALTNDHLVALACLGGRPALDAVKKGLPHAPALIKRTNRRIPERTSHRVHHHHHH
Particulars: tags: 6-His. On the procedure:
as §1
Two additional N-TALERs, based on N-TALER IV-1, were constructed wherein the GinH106Y recombinase catalytic domain was replaced with either the GinL7C7-EE2 catalytic domain or the GinL7C7-EE3 permissive recombinase catalytic domain. These N-TALERs were labeled pN-TALER IV-1-EE2 (SEQ ID NO:41) and pN-TALER IV-1-EE3 (SEQ ID NO:45), respectively. pN-TALER IV-1-EE2 was tested in combination with seventeen N-TALER reporter constructs and pN-TALER IV-1-EE3 was tested with three reporter constructs (Table 10).

For data set [4], the target named is T4, pN-TALER IV-1-EE2 (GinL7C7-EE2-TALE13). Particulars: tags: 6-His. An excerpt: (§2) To determine how much of the Gin20 sequence is required for recombination when the central sequence is maintained at a permitted length, N-TALER reporters were generated with a 20 bp recombinase central sequence between the TALE binding sites, where either the central 12 bp, or the central 10 bp, or the central 8 bp of the recombinase core sequence were held constant, and the remaining nucleotides were different from the Gin sequence. The N-TALER reporter with 12 bp was designated R45, the N-TALER reporter with 10 bp was designated R46, and the N-TALER reporter with 8 bp was designated R47. A N-TALER reporter with a 10 bp site 1 and a 12 bp site 2 was designated R46B, and a N-TALER reporter with a T and an A flanking the central AT di-nucleotide was designated R48 (see Table 33). The various reporters, including the pSC101 Gin20TALE13+0 were co-transformed with either sN-TALER-IV-1 or pN-TALER-IV-1 and recombination, as determined by colony color, was scored (Table 33). For purposes of comparison, the GinE site that was used in the generation of the GinL7C7-EE2 recombinase domain (Gersbach et al., 2010) was also included.
(§3) To confirm that white colonies resulted from recombination, the colonies were analyzed by colony PCR and sequencing of the PCR product. For the reporter that retained 12 bp from the Gin site, 8 of 8 colonies analyzed had the predicted recombination product for both the sN-TALER-IV-1 chimera and the pN-TALER-IV-1chimera (16 colonies total analyzed, 8 each). Likewise, for the reporter that retained 8 bp from the Gin site co-transformed with the pN-TALER-IV-1 chimera, 14 of 14 colonies analyzed had the predicted recombination product.

Data set [5] addresses T3, sN-TALER IV-1 (GinH106Y-TALE13). Particulars: tags: 6-His; chain copies: 2 per site, tetramer in synapsis (stated).
Source text: as §2, §3

B1: Gin20TALE+12 (dsDNA)
DNA 1: AGAAGGTATTTATATAGGCACACTTATCCAAAACCATGGTTTACAGGACCACACGGTATATAAATACCTTCT
DNA 2: AGAAGGTATTTATATACCGTGTGGTCCTGTAAACCATGGTTTTGGATAAGTGTGCCTATATAAATACCTTCT
For the molecule B1, the activity in data set [1] worked out at 1 score; in the data set with sN-TALER IV-3, 1 score; in data set [2], 2 score; in data set [3], 2 score.

B2: R48 (dsDNA)
DNA 1: AGAAGGTATTTATATCCAAAACTATAGTTTACAGTATAAATACCTTCT
DNA 2: AGAAGGTATTTATACTGTAAACTATAGTTTTGGATATAAATACCTTCT
As to B2, the figures for the activity in data set [4] and in data set [5] were 1.5 score and 4.5 score, respectively.

B3: R45 (12bp) (dsDNA)
DNA 1: AGAAGGTATTTATATCTCAAACCATGGTTTCACTTATAAATACCTTCT
DNA 2: AGAAGGTATTTATAAGTGAAACCATGGTTTGAGATATAAATACCTTCT
As to B3, the activity in data set [4] was 1 score; in data set [5] it was 1.5 score.

B4: R46 (10bp) (dsDNA)
DNA 1: AGAAGGTATTTATATCTCTAACCATGGTTACACTTATAAATACCTTCT
DNA 2: AGAAGGTATTTATAAGTGTAACCATGGTTAGAGATATAAATACCTTCT
Consider B4, for which the activity in data set [4] stood at 1.5 score; in data set [5], 4.5 score.
